According to publication PMC10191836 (2023):

T1: C-terminal region of human LTBP-1 (human, UniProt Q14766 1347-1721)
T1 chain: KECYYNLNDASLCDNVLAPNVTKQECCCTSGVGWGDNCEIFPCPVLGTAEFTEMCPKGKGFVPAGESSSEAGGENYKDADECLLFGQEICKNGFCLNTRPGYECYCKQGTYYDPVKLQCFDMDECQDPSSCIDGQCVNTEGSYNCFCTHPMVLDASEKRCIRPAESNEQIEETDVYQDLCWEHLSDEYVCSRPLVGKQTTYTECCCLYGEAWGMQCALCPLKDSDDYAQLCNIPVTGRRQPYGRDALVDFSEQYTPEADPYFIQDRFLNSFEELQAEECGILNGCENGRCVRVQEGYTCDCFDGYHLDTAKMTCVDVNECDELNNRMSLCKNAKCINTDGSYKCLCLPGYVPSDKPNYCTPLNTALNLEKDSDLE


Molecular target: T1, C-terminal region of human LTBP-1
Assay: SPR

Kd [µM] | Binder
0.0501 | recombinant human fibrillin-1 N-terminal fragment PF3 with the WMS deletion (domains TB1–PRR–EGF4) (domain or fragment, Calcium bound to the cbEGF domains; disulfide bonded. The PF3 end is not printed: it is taken as the end of TB2 (722), because the paper's fragment boundaries are at 330 and 723. The WMS deletion TB1-PRR-EGF4 is taken as 330-489 from domain limits. The N-terminus is assumed to be processed at 44/45.) not shown
0.0177 | recombinant human fibrillin-1 N-terminal fragment PF3 (domain or fragment) not shown
